Data set [1] has as its target T1, BmSTPR (FMBP-1 STPR domain) (Bombyx mori, UniProt Q5FBS0 99-193).
T1 sequence: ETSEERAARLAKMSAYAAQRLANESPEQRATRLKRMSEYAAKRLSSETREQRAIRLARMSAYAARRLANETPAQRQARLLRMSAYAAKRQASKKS
Briefly: ITC.

For data set [2], the target named is T1, BmSTPR (FMBP-1 STPR domain). The experiment in a line: X-ray crystal structure.
Data set [3] addresses T2, BmSTPR with R1 deleted (R2-R4) (Bombyx mori, UniProt Q5FBS0 122-193).
T2 sequence: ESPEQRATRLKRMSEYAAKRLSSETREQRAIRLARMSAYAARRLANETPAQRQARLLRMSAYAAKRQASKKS
Briefly: ITC. For orientation: In ITC the heat of successive injections is recorded.

B1: (gcca)3 (dsDNA)
DNA 1: GCCAGCCAGCCA
DNA 2: TGGCTGGCTGGC
Consider B1, for which, in data set [1], the Kd (in general, the constant that tells how readily two partners part at equilibrium) is 44600 ± 14300 nM.

B2: (auac/gtat)4 (dsDNA)
DNA 1: AUACAUACAUACAUAC
DNA 2: GTATGTATGTATGTAT
modifications: t2 of each unit to (deoxy)uridylate
On to B2, for which, in data set [1], binding was characterised by a dissociation constant (Kd) of 183 nM.

B3: 18-bp DNA, (atac)4 plus one terminal nt each side (dsDNA)
DNA 1: CATACATACATACATACA
DNA 2: TGTATGTATGTATGTATG
In the case of B3, the binding result in data set [2] is “binds”.

B4: 20-bp (+290) (dsDNA)
DNA 1: AGTATTTACATAGATTCATC
DNA 2: GATGAATCTATGTAAATACT
B4 displayed a Kd in data set [3] of 547 nM.

These data come from article PMC4856987.
